Experiments:
[1] = molecular target: T1, heparinase I (Pedobacter heparinus, UniProt Q05819); assay type: biochemical, Flavobacterium heparinum; details: 30 minutes preincubation, 50 μM WRK, pH 7
[2] = molecular target: T1, heparinase I; assay type: binding, Flavobacterium heparinum
[3] = molecular target: T1, heparinase I; experiment: Effect of lanthanides on heparinase I activity (232 nm assay); assay type: biochemical, Flavobacterium heparinum; details: 15 minutes preincubation; 4 mg/mL heparin, 5 mM calcium, pH 6.5
[4] = Heparinase I activity as a function of calcium concentration (K0.5, calcium dependence); assay type: biochemical
Outline: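 Heparinase I mutant activity was measured by UV absorbance at 232 nm in 100 mM MOPS, pH 7.0, with calcium varied from 0 to 10 mM. Activity is given as IU (μmol product/min) using ε=−3800 M^−1cm^−1.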

[5] = Processivity of heparinase I on heparin; assay type: biochemical
[6] = absence of calcium; shown previously; cited from earlier work
[7] = Exhaustive digest and HPLC analysis of saccharide products of heparinase II and mutants, heparin substrate; details: exhaustive digest 18 hours at 30° C.
Procedure: HPLC Analysis of Saccharide Products of Heparinase II Activity. Heparin or heparan sulfate was degraded by heparinase II or one of the recombinant heparinases for 18 h at 30° C. The reaction was stopped by boiling and the samples were injected onto a POROS Q/M (4.6×100 mm) anion-exchange column connected to a BIOCAD system (PerSeptive Biosystems, Framingham, Mass.) (Godavarti, R., and Sasisekharan, R (1996c) Biochem. Biophys. Res. Comm. 229, 770-777). A salt gradient of 0-2 M NaCI in 10 mM Tris pH 7.0 was run and products were monitored at 232 nm.
Exhaustive digests of both 4 mg/ml heparin and 2 mg/ml heparan sulfate were completed and the resulting products analyzed with a Perfusion Chromatography system in a fashion similar to the analysis completed for heparinase I (Godavarti, R., and Sasisekharan, R (1996c) Biochem. Biophys. Res. Comm. 229, 770-777). Running buffer used as 10 mM Tris, pH 7.0 and the salt gradient was 0-2 M NaCl over the course of ten minutes.
After purification, each of these four wild-type and mutant enzymes was characterized via exhaustive (i.e., 18 hours at 30° C.) substrate digests to determine product profiles. Perfusion chromatography profiles of the desaccharide products of the three cysteine mutants and the r-heparinase II were analyzed using either heparin and heparan sulfate as the substrate.

Molecule: [Ca+2] [calcium]
- K0.5 of protection from WRK-mediated inactivation [1]: 980 µM
- calcium concentration sufficient to compete with terbium for binding to heparinase I [2]: 2 mM

Molecule: [Lu+3] [Lu^3+, lutetium]
- IC50 [3]: 212 µM

Molecule: [Tb+3] [terbium]
- IC50 [3]: 39 µM
- terbium equivalents at which fluorescence intensity stops increasing [2]: 10 equivalents

B1: heparinase I: 42,500 Da enzyme from the periplasm of F. heparinum that degrades heparin-like glycosaminoglycans (protein, listed as Flavobacterium heparinum)
chain: MKKQILYLIVLQQLFLCSAYAQQKKSGNIPYRVNVQADSAKQKAIIDNKWVAVGINKPYALQYDDKLRFNGKPSYRFELKAEDNSLEGYAAGETKGRTELSYSYATTNDFKKFPPSVYQNAQKLKTVYHYGKGICEQGSSRSYTFSVYIPSSFPDNATTIFAQWHGAPSRTLVATPEGEIKTLSIEEFLALYDRMIFKKNIAHDKVEKKDKDGKITYVAGKPNGWKVEQGGYPTLAFGFSKGYFYIKANSDRQWLTDKADRNNANPENSEVMKPYSSEYKTSTIAYKMPFAQFPKDCWITFDVAIDWTKYGKEANTILKPGKLDVMMTYTKNKKPQKAHIVNQQEILIGRNDDDGYYFKFGIYRVGNSTVPVTYNLSGYSETAR
- activity in 2 mm Ca++ relative to absence of calcium [4]: ~10 ×
- increase in activity upon introduction of millimolar concentrations of calcium [4]: five-fold increase in activity
- processivity [5]: ~90%
- salt concentration of elution from heparin-POROS column [6]: around 500 mM

B2: C189A: heparinase II cysteine to alanine mutant at position 189 (protein, UniProt C6XZB6 26-772, looked up, variant C189A)
Heparin and heparin-sulfate …: QTKADVVWKDVDGVSMPIPPKTHPRLYLREQQVPDLKNRMNDPKLKKVWADMIKMQEDWKPADIPEVKDFRFYFNQKGLTVRVELMALNYLMTKDPKVGREAITSIIDTLETATFKPAGDISRGIGLFMVTGAIVYDWCYDQLKPEEKTRFVKAFVRLAKMLEAGYPPVKDKSIVGHASEWMIMRDLLSVGIAIYDEFPEMYNLAAGRFFKEHLVARNWFYPSHNYHQGMSYLNVRFTNDLFALWILDRMGAGNVFNPGQQFILYDAIYKRRPDGQILAGGDVDYSRKKPKYYTMPALLAGSYYKDEYLNYEFLKDPNVEPHCKLFEFLWRDTQLGSRKPDDLPLSRYSGSPFGWMIARTGWGPESVIAEMKVNEYSFLNHQHQDAGAFQIYYKGPLAIDAGSYTGSSGGYNSPHNKNFFKRTIAHNSLLIYDPKETFSSSGYGGSDHTDFAANDGGQRLPGKGWIAPRDLKEMLAGDFRTGKILAQGFGPDNQTPDYTYLKGDITAAYSAKVKEVKRSFLFLNLKDAKVPAAMIVFDKVVASNPDFKKFWLLHSIEQPEIKGNQITIKRTKNGDSGMLVNTALLPDAANSNITSIGGKGKDFWVFGTNYTNDPKPGTDEALERGEWRVEITPKKAAAEDYYLNVIQIADNTQQKLHEVKRIDGDKVVGVQLADRIVTFSKTSETVDRPFGFSVVGKGTFKFVMTDLLPGTWQVLKDGKILYPALSAKGDDGALYFEGTEGTYRFLR
- degradation product profile, heparin substrate [7]: closely matched those of both r-heparinase II and native heparinase II

B3: C348A: heparinase II cysteine to alanine mutant at position 348 (protein, UniProt C6XZB6 26-772, looked up, variant C348A)
Heparin and heparin-sulfate …: QTKADVVWKDVDGVSMPIPPKTHPRLYLREQQVPDLKNRMNDPKLKKVWADMIKMQEDWKPADIPEVKDFRFYFNQKGLTVRVELMALNYLMTKDPKVGREAITSIIDTLETATFKPAGDISRGIGLFMVTGAIVYDWCYDQLKPEEKTRFVKAFVRLAKMLECGYPPVKDKSIVGHASEWMIMRDLLSVGIAIYDEFPEMYNLAAGRFFKEHLVARNWFYPSHNYHQGMSYLNVRFTNDLFALWILDRMGAGNVFNPGQQFILYDAIYKRRPDGQILAGGDVDYSRKKPKYYTMPALLAGSYYKDEYLNYEFLKDPNVEPHAKLFEFLWRDTQLGSRKPDDLPLSRYSGSPFGWMIARTGWGPESVIAEMKVNEYSFLNHQHQDAGAFQIYYKGPLAIDAGSYTGSSGGYNSPHNKNFFKRTIAHNSLLIYDPKETFSSSGYGGSDHTDFAANDGGQRLPGKGWIAPRDLKEMLAGDFRTGKILAQGFGPDNQTPDYTYLKGDITAAYSAKVKEVKRSFLFLNLKDAKVPAAMIVFDKVVASNPDFKKFWLLHSIEQPEIKGNQITIKRTKNGDSGMLVNTALLPDAANSNITSIGGKGKDFWVFGTNYTNDPKPGTDEALERGEWRVEITPKKAAAEDYYLNVIQIADNTQQKLHEVKRIDGDKVVGVQLADRIVTFSKTSETVDRPFGFSVVGKGTFKFVMTDLLPGTWQVLKDGKILYPALSAKGDDGALYFEGTEGTYRFLR
modifications: heparinase II
- degradation product profile, heparin substrate [7]: completely inactive

— US7560106B2, “Rationally designed heparinases derived from heparinase I and II and methods of sequencing therewith” (Massachusetts Institute of Technology, priority 1998, dated 2009)
